Experimental data taken from patent publication US20250188176A1 (INVETX, published 2025).
Substitutions are numbered along the chain they refer to.

T1: Extracellular domain (ECD) of the canine IL-4 receptor alpha-V5 epitope-AviTag-His Tag (canine)
T1 construct: monomeric form isolated by size exclusion; also called canine IL-4RA-V5-Avi-His; canine IL-4RA
T1 chain: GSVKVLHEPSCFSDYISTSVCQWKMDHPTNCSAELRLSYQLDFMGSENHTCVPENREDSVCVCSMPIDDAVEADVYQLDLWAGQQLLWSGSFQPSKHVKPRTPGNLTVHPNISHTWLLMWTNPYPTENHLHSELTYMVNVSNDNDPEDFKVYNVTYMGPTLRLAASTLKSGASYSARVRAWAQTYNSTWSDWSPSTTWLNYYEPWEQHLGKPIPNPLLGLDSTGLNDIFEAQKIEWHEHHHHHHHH

B1: TB640_005 Fab-SASA VH-K103I (Fab, V domains shown)
VH: EVQLVESGGDLVKPGGSLRLSCVASGFTFRDYAMTWVRQAPGKGLQWVSLISGSGGKTYYADAVKGRFTISRDNAKNTLYLQMNSLRAEDTAVYYCAVDRLTITIRPQYYGLWVWGQGTLVTVSS
VL: DIVMTQTPLSLSVSPGETASISCRSSQSLLYSIGYNYLDWYLQKPGQSPQGLIYLGSKRASGVPDRFSGSGSGTDFTLRISRVEANDTGVYYCMQGLQSPLTFGQGTKLEIKR
notes: not shown: SASA tag then His-tag
B2: TB640_005 Fab-SASA VL-A60L (Fab, V domains shown)
VH: B1 VH with I103K
VL: B1 VL with A60L
notes: as for B1
B3: TB640_005 Fab-SASA VH-K103R (Fab, V domains shown)
VH: B1 VH with I103R
VL: B1 VL
notes: as for B1
B4: TB640_005 Fab-SASA VH-T28N (Fab, V domains shown)
VH: B1 VH with T28N, I103K
VL: B1 VL
notes: as for B1
B5: TB640_005 Fab-SASA VL-G96P (Fab, V domains shown)
VH: B1 VH with I103K
VL: B1 VL with G96P
notes: as for B1
B6: TB640_005 Fab-SASA VL-L55M (Fab, V domains shown)
VH: B1 VH with I103K
VL: B1 VL with L55M
notes: as for B1
B7: TB640_005 Fab-SASA VL-I33P (Fab, V domains shown)
VH: B1 VH with I103K
VL: B1 VL with I33P
notes: as for B1
B8: TB640_005 Fab-SASA VH-V114Q (Fab, V domains shown)
VH: B1 VH with I103K, V114Q
VL: B1 VL
notes: as for B1
B9: TB640_005 Fab-SASA VH-L50F (Fab, V domains shown)
VH: B1 VH with L50F, I103K
VL: B1 VL
notes: as for B1
B10: TB640_005 Fab-SASA VH-S52N (Fab, V domains shown)
VH: B1 VH with S52N, I103K
VL: B1 VL
notes: as for B1
B11: TB640_005 Fab-SASA VH-L101M (Fab, V domains shown)
VH: B1 VH with L101M, I103K
VL: B1 VL
notes: as for B1
B12: TB640_005 Fab-SASA VL-A60M (Fab, V domains shown)
VH: B1 VH with I103K
VL: B1 VL with A60M
notes: as for B1
B13: TB640_005 Fab-SASA VH-V114H (Fab, V domains shown)
VH: B1 VH with I103K, V114H
VL: B1 VL
notes: as for B1
B14: TB640_005 Fab-SASA VL-I33V (Fab, V domains shown)
VH: B1 VH with I103K
VL: B1 VL with I33V
notes: as for B1
B15: TB640_005 Fab-SASA VL-I33A (Fab, V domains shown)
VH: B1 VH with I103K
VL: B1 VL with I33A
notes: as for B1
B16: TB640_005 Fab-SASA VH-L112M (Fab, V domains shown)
VH: B1 VH with I103K, L112M
VL: B1 VL
notes: as for B1
B17: TB640_005 Fab-SASA VH-Y110L (Fab, V domains shown)
VH: B1 VH with I103K, Y110L
VL: B1 VL
notes: as for B1
B18: TB640_005 Fab-SASA VH-V114K (Fab, V domains shown)
VH: B1 VH with I103K, V114K
VL: B1 VL
notes: as for B1
B19: TB640_005 Fab-SASA VH-T28P (Fab, V domains shown)
VH: B1 VH with T28P, I103K
VL: B1 VL
notes: as for B1
B20: TB640_005 Fab-SASA VH-V114G (Fab, V domains shown)
VH: B1 VH with I103K, V114G
VL: B1 VL
notes: as for B1
B21: TB640_005 Fab-SASA VH-Y110R (Fab, V domains shown)
VH: B1 VH with I103K, Y110R
VL: B1 VL
notes: as for B1
B22: TB640_005 Fab-SASA VL-L30A (Fab, V domains shown)
VH: B1 VH with I103K
VL: B1 VL with L30A
notes: as for B1
B23: TB640_005 Fab-SASA VH-L50M (Fab, V domains shown)
VH: B1 VH with L50M, I103K
VL: B1 VL
notes: as for B1
B24: TB640_005 Fab-SASA VH-L101K (Fab, V domains shown)
VH: B1 VH with L101K, I103K
VL: B1 VL
notes: as for B1
B25: TB640_005 Fab-SASA VL-L30T (Fab, V domains shown)
VH: B1 VH with I103K
VL: B1 VL with L30T
notes: as for B1

Molecular target: T1, Extracellular domain (ECD) of the …
Test: SPR, Fab-SASA captured on BSA;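 note: biacore T200 SPR, Fab-SASA variants from E. coli conditioned medium captured on BSA-coated CM5 chip, canine IL-4RA injected 120 s then 420 s dissociation, 1:1 model fit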
Procedure: Forty-four PML clones were selected from each library for expression in E. coli in 96 deep-well plates by inoculating into 2YT medium and inducing with 0.2 mM IPTG overnight at room temperature. The Fab secreted in the medium was analyzed for binding activity by completing an ELISA. […] The 39 unique clones were confirmed by an off-rate screening assay in an SPR assay performed on a Biacore T200. For the SPR analyses, bovine serum albumin (BSA) was immobilized to CM5 sensor chip. The sensor chip surface was activated with 50 mmol/L H-Hydroxysuccinimide and 200 mmol/L 1-ethyl-3-(3-dimethylaminopropyl) carbodiimide hydrochloride for 420 s. Afterwards, BSA diluted in 10 mM sodium acetate, pH 4.5 was injected. After the amine coupling reaction, the remaining active coupling sites on the chip surface were blocked with 1 mM ethanolamine hydrochloride. The selected Fab-SASA variants in conditioned medium were captured on the BSA-coated chips. The running buffer was HBS-EP (10 mM HEPES 500 mM NaCl, 3 mM EDTA, 0.05% Tween 20, pH 7.4). After equilibration, canine IL-4RA was injected for 120 seconds (association phase) followed by the injection of running buffer for 420 sec (dissociation phase). The off-rates of the Fab-SASA clones were obtained from fitting the experimental data locally to a 1:1 interaction model using the Biacore T200 evaluation software.

Row | Binder | Kd | Ratio WT-kd/clone-kd | koff | kon
1 | B1 | 18.6 nM | 0.99 | 0.000967 s⁻¹ | 51900 M⁻¹ s⁻¹
2 | B2 | 5.41 nM | 0.98 | 0.000974 s⁻¹ | 180000 M⁻¹ s⁻¹
3 | B3 | 7.13 nM | 1.5 | 0.000636 s⁻¹ | 89200 M⁻¹ s⁻¹
4 | B4 | 11.3 nM | 1.22 | 0.00078 s⁻¹ | 69200 M⁻¹ s⁻¹
5 | B5 | 3.27 nM | 2.66 | 0.000358 s⁻¹ | 109000 M⁻¹ s⁻¹
6 | B6 | 7.97 nM | 1.42 | 0.000669 s⁻¹ | 83900 M⁻¹ s⁻¹
7 | B7 | 12.5 nM | 0.7 | 0.00137 s⁻¹ | 109000 M⁻¹ s⁻¹
8 | B8 | 7.16 nM | 1.41 | 0.000674 s⁻¹ | 94100 M⁻¹ s⁻¹
9 | B9 | 15 nM | 0.49 | 0.00193 s⁻¹ | 128000 M⁻¹ s⁻¹
10 | B10 | 1.83 nM | 7.88 | 0.000112 s⁻¹ | 66200 M⁻¹ s⁻¹
11 | B11 | 7.73 nM | 1.34 | 0.000713 s⁻¹ | 92300 M⁻¹ s⁻¹
12 | B12 | 4.52 nM | 1.12 | 0.00085 s⁻¹ | 188000 M⁻¹ s⁻¹
13 | B13 | 5.47 nM | 1.62 | 0.000589 s⁻¹ | 108000 M⁻¹ s⁻¹
14 | B14 | 12.7 nM | 0.94 | 0.00101 s⁻¹ | 79800 M⁻¹ s⁻¹
15 | B15 | 20.1 nM | 0.62 | 0.00153 s⁻¹ | 75900 M⁻¹ s⁻¹
16 | B16 | 13.7 nM | 1.97 | 0.000483 s⁻¹ | 35300 M⁻¹ s⁻¹
17 | B17 | 6.65 nM | 0.71 | 0.00135 s⁻¹ | 202000 M⁻¹ s⁻¹
18 | B18 | 5.97 nM | 1.33 | 0.000717 s⁻¹ | 120000 M⁻¹ s⁻¹
19 | B19 | 8.95 nM | 1.21 | 0.000786 s⁻¹ | 87800 M⁻¹ s⁻¹
20 | B20 | 3.5 nM | 1.47 | 0.000647 s⁻¹ | 185000 M⁻¹ s⁻¹
21 | B21 | 9.6 nM | 0.62 | 0.00153 s⁻¹ | 159000 M⁻¹ s⁻¹
22 | B22 | 27.3 nM | 0.51 | 0.00187 s⁻¹ | 68600 M⁻¹ s⁻¹
23 | B23 | 8.5 nM | 0.79 | 0.0012 s⁻¹ | 141000 M⁻¹ s⁻¹
24 | B24 | 7.1 nM | 1.53 | 0.000623 s⁻¹ | 87800 M⁻¹ s⁻¹
25 | B25 | 11.8 nM | 1.54 | 0.000618 s⁻¹ | 52200 M⁻¹ s⁻¹
